We go through 2 molecules from US20050142141A1 (University of California, published 2005).

Changes are numbered by the printed parent chain.

The experiment concerns the target T1, soluble extracellular domain (ECD) of the human insulin receptor (human, UniProt P06213 28-956, limits assumed).
T1 construct: extracellular domain; also called HIR ECD; extracellular domain of the HIR
In words: immunoradiometric assay (IRMA) on HIR ECD with [125I]-murine 83-14 MAb as ligand. The text has this:
In the IRMA, the antigen was the extracellular domain of the HIR, which was produced from transfected CHO cells and purified by lectin affinity chromatography of CHO cell conditioned medium.

B1: murine 83-14 HIRMAb (antibody, V domains shown)
VH: QVQLQESGPELVKPGALVKISCKASGYTFTNYDIHWVKQRPGQGLEWIGWIYPGDGSTKYNEKFKGKATLTADKSSSTAYMHLSSLTSEKSAVYFCAREWAYWGQGTLVTVSA
VL: DIQMTQSPSSLSASLGERVSLTCRASQDIGGNLYWLQQGPDGTIKRLIYATSSLDSGVPKRFSGSRSGSDYSLTISSLESEDFVDYYCLQYSSSPWTFGGGTKMEIKR
notes: Intact murine IgG from the 83-14 hybridoma; the murine constant regions and isotype are not; also called HIRMAb 83-14; MAb 83-14
B1 yielded a Kd of 2.7 nM. This lies in the single-digit nanomolar range.

B2: Version 5 humanized HIRMAb (antibody, human IgG1, V domains shown)
VH: B1 VH with Q5L, P9A, K13R, A16S, L17S, L108T
VL: DIQMTQSPSSLSASVGERVTITCRASQDIGGNLYWYQQKPGKAPKLLIYATSSLDSGVPSRFSGSGSGTDYTFTISSLQPEDIATYYCLQYSSSPWTFGQGTKVEIKR
notes: also called version 5 HIRMAb; Version 5 humanized 83-14 HIRMAb
Molecule B2 gave a Kd of 3.7 nM.
